In article PMC2605612:

Target: T1, Myc-hFis1[1-152] (human), Q9Y3D6
T1 chain: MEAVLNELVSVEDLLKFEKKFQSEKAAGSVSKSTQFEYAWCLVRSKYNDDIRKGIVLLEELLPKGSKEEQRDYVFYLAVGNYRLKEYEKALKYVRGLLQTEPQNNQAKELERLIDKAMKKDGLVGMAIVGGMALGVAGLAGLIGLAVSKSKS
Assay: cross-linking
Details: remark: other sources report otherwise

stoichiometry N: 2
B1: Myc-hFis1[1-152], Q9Y3D6 1-152 (natural protein)
chain: T1 chain
